System: platelet adhesion to brain endothelium
Experiment: Platelet and leukocyte immunohistochemistry after intrastriatal cytokine microinjection (rat)
Type: in vivo
Conditions: versus vehicle, TNF at 24 h
Method: Rat-recombinant TNF and IL-1[…] were obtained from the National Institute for Biological Standards and Controls (NIBSC, Potters Bar, UK). Rat-recombinant LT-[…] and mouse-recombinant TNF was purchased from R&D Systems (Abingdon, UK). The cytokines were dissolved in endotoxin-free saline (vehicle). The cytokines contained a maximum of 100 IU endotoxin/mg cytokine (corresponding to 10 ppm by weight), which, in view of previous studies, was considered negligible in the context of these experiments.
12-week-old male Wistar rats or 8-week-old NMRI mice were used for the injection of the recombinant cytokines (Charles River, Margate, UK). Both rats and mice responded to the injection of cytokines in an identical manner. […]
Frozen, 10 μm-thick serial coronal sections were cut from tissue blocks. […] The numbers of positive cells present in the brain were quantitated. For each tissue section, 4 representative fields were chosen and the average number of positive cells was calculated and expressed as number of cells per mm^2.
The p55 mouse anti-rat platelet GPIIa monoclonal antibody was a kind gift from Kirin Brewery Co Ltd, Takasaki, Japan. The numbers of platelet positive elements present in the brain were quantitated. For each tissue section, 6 representative fields were chosen and the average number of positive elements was calculated and expressed as number of discrete elements per mm^2.

Molecule	number of platelet positive elements
IL-1β: rat-recombinant interleukin-1β microinjected into the striatum (protein, UniProt Q63264 117-268, looked up) Interleukin-1 beta: VPIRQLHCRLRDEQQKCLVLSDPCELKALHLNGQNISQQVVFSMSFVQGETSNDKIPVALGLKGLNLYLSCVMKDGTPTLQLESVDPKQYPKKKMEKRFVFNKIEVKTKVEFESAQFPNWYISTSQAEHRPVFLGNSNGRDIVDFTMEPVSS	did not increase
LT-α: rat-recombinant lymphotoxin-α microinjected into the striatum (protein, UniProt Q06332 34-202, looked up) Lymphotoxin-alpha: LSGVRFSASRTAHQPPQKHLTHGLLKPAAHLVGYPSKQNSLLWRANTDRAFLRHGFSLNNNSLLIPTSGLYFVYSQVVFSGESCSPRAIPTPIYLAHEVQLFSSQYPFHVPLLSAQKSVYPGLQGPWVRSMYQGAVFLLSKGDQLSTHTDGISHLHFSPSTVFFGAFAL	did not increase

Reference: US20090317330A2, “DIAGNOSIS AND TREATMENT OF DISEASES INVOLVING PLATELET ACTIVATION” (Baker IDI Heart and Diabetes Institute Holdings Limited, priority 2007, published 2009)
